Our source for the stoichiometry N values is publication PMC10450692.

Bounds are passed on as bounds.

Targets include Aβ(1–38); Aβ(1–28); Aβ(1–16); scrambled Aβ(1–40).
Common to all, as to assay: native MS; native nanoESI ion mobility MS (Synapt G2-S), 20 μM peptide in 200 mM ammonium acetate pH 6.8, positive ion mode, 25 °C source temperature; self-association of SEC-purified monomer
The target of experiment [1] is amyloid-β peptide Aβ(1–40).
Experiment [2] addresses Aβ(1–40)CC (A21C and A30C double mutant with an intramolecular disulfide bond).

As a reminder, the stoichiometry N is a count of units in the complex or per binding partner. With Aβ(1–38) (peptide), the stoichiometry N with Aβ(1–38) is more than 6.

For the substance amyloid-β peptide Aβ(1–40), the stoichiometry N in experiment [1] was more than 8.

In turn, Aβ(1–28) (peptide) displayed a stoichiometry N with Aβ(1–28) of 6.

As to Aβ(1–16) (peptide), in the experiment with Aβ(1–16), the stoichiometry N worked out at 2.

In experiment [2], “Aβ(1–40)CC (A21C and A30C double mutant with an intramolecular disulfide bond) (peptide)” came in with a stoichiometry N of more than 10.

For the substance scrambled Aβ(1–40) (peptide), the stoichiometry N in the experiment with scrambled Aβ(1–40) worked out at 2.
